From patent US20180057596A1 (AstraZeneca / MedImmune, published 2018)
Changes are numbered by the printed parent chain.

T1: human IL4Rα/Fc (R and D Systems 604-4R) (human, UniProt P24394 26-231, limits assumed, biotin labelled in the assay of Example 5)
T1 construct: bought protein; also called IL-4Rα/Fc (R&D systems Cat. No. 604-4R-050); not shown: Fc part of the bought fusion
T1 sequence (looked up): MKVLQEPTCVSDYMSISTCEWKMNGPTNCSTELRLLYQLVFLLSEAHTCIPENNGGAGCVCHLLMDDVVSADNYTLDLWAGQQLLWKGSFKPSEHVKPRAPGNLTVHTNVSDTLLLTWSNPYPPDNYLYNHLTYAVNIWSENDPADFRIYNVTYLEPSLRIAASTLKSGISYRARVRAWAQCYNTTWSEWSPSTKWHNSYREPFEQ

B1: Antibody 3 scFv (scFv, V domains shown)
VH: QVQLVQSGAEVKKPGASVKVSCKASGYAFTSYYMHWARQAPGQGLEWMGIINPSGGSTSYAQKFQGRVTMTRDTSTSTVYMELSSLRSEDTAVYYCARGKLLKNPWGKGTLVTVSS
VL: QSVLTQPPSVSAAPGQKVTISCSGGSSNIGNSYVSWYQQLPGTAPKLLIYDNNKRPSGIPDRFSGSKSGTSATLAITGLQTGDEADYYCGTWFGTPASNYVFGTGTKLTVL
notes: tested as purified scFv
B2: Antibody 4 scFv (scFv, V domains shown)
VH: B1 VH with L101W, L102W, K103L, N104Y, P105N
VL: B1 VL with F93D, G94T, T95S, P96S, A97P, S98P, N99Q, Y100P, V101I
notes: tested as purified scFv
B3: Antibody 5 scFv (scFv, V domains shown)
VH: B1 VH with L101W, L102W, K103L, N104Y, P105D
VL: B1 VL with F93D, G94T, T95S, P96S, A97P, S98P, N99Q, Y100P, V101I
notes: tested as purified scFv
B4: Antibody 6 scFv (scFv, V domains shown)
VH: B1 VH with L101Y, L102W, K103M, N104Y, P105D
VL: B1 VL with F93D, G94T, T95S, P96T, A97T, S98Y, N99H, Y100P, V101I
notes: tested as purified scFv
B5: Antibody 7 scFv (scFv, V domains shown)
VH: B1 VH with L101W, L102W, K103W, N104Q, P105Y
VL: B1 VL with F93D, G94T, T95S, P96S, A97P, S98P, N99Q, Y100P, V101I
notes: tested as purified scFv
B6: Antibody 11 scFv (scFv, V domains shown)
VH: B1 VH with L101W, L102W, K103F, N104Y, P105D
VL: B1 VL with F93D, G94T, T95S, A97S, S98M, N99I, Y100P, V101L
notes: tested as purified scFv
B7: Antibody 14 scFv (scFv, V domains shown)
VH: B1 VH with L101W, L102W, K103L, N104Y, P105N
VL: B1 VL with F93D, G94T, T95S, A97P, S98T, N99K, Y100P, V101L
notes: tested as purified scFv
B8: Antibody 17 scFv (scFv, V domains shown)
VH: B1 VH with L101W, L102W, K103W, N104Q, P105H
VL: B1 VL with F93D, G94T, T95S, A97V, S98D, N99R, Y100P, V101I
notes: tested as purified scFv
B9: Antibody 29 scFv (scFv, V domains shown)
VH: B1 VH with L101Y, L102W, K103M, N104Y, P105D, L111R
VL: B1 VL with F93D, G94T, T95S, A97V, S98W, N99E, Y100W, V101P
notes: tested as purified scFv
B10: Antibody 32 scFv (scFv, V domains shown)
VH: B1 VH with L101Y, L102W, K103M, N104Y, P105D
VL: B1 VL with Y88F, F93D, G94T, T95S, P96T, S98W, N99E, Y100W, V101P
notes: tested as purified scFv
B11: Antibody 34 scFv (scFv, V domains shown)
VH: B1 VH with T69S, L101Y, L102W, K103M, N104Y, P105D
VL: B1 VL with Y88F, F93D, G94T, T95S, P96T, A97V, S98W, N99E, Y100W, V101P
notes: tested as purified scFv
B12: Antibody 36 scFv (scFv, V domains shown)
VH: B1 VH with T58A, L101Y, L102W, K103M, N104Y, P105D
VL: B1 VL with F93D, G94S, T95S, P96T, A97V, S98W, N99E, Y100W, V101P
notes: tested as purified scFv
B13: Antibody 39 scFv (scFv, V domains shown)
VH: B1 VH with S54R, L101Y, L102W, K103M, N104Y, P105D
VL: B1 VL with F93D, G94T, T95S, P96T, S98W, N99E, Y100W, V101P
notes: tested as purified scFv
B14: Antibody 20 scFv (scFv, V domains shown)
VH: B1 VH with L101Y, L102W, K103M, N104Y, P105D
VL: B1 VL with F93D, G94T, T95S, P96T, A97V, S98W, N99E, Y100W, V101P
notes: tested as purified scFv
B15: Antibody 2 scFv (scFv, V domains shown)
VH: B1 VH with L101W, L102W, K103L, N104Y, P105N
VL: B1 VL with F93D, G94T, T95S, P96Q, A97P, S98P, Y100P, V101L
notes: tested as purified scFv
B16: Antibody 8 scFv (scFv, V domains shown)
VH: B1 VH with L101W, L102W, K103W, N104Q, P105Y
VL: B1 VL with F93D, G94T, T95S, P96T, A97T, S98Y, N99H, Y100P, V101I
notes: tested as purified scFv
B17: Antibody 9 scFv (scFv, V domains shown)
VH: B1 VH with L101W, L102W, K103L, N104Y, P105N
VL: B1 VL with F93D, G94T, T95S, P96T, A97T, S98M, N99Y, Y100P, V101L
notes: tested as purified scFv
B18: Antibody 10 scFv (scFv, V domains shown)
VH: B1 VH with L101W, L102W, K103L, N104Y, P105D
VL: B1 VL with F93D, G94T, T95S, P96T, A97V, S98L, N99T, Y100P, V101I
notes: tested as purified scFv
B19: Antibody 12 scFv (scFv, V domains shown)
VH: B1 VH with L101W, L102W, K103F, N104Y, P105D
VL: B1 VL with F93D, G94T, T95S, P96T, A97T, S98M, N99Y, Y100P, V101L
notes: tested as purified scFv
B20: Antibody 13 scFv (scFv, V domains shown)
VH: B1 VH with L101W, L102W, K103L, N104Y, P105D
VL: B1 VL with F93D, G94T, T95S, P96T, A97T, S98L, N99Q, Y100P, V101L
notes: tested as purified scFv

Target: T2, cynomolgus IL4Rα/Fc HIS6 (HEK expressed) (cynomolgus monkey)
T2 construct: also called Cyno IL4R; cynomolgus IL-4Rα HIS Fc (in house HEK-EBNA derived); not shown: HIS6 tag
Test: HTRF receptor-ligand assay, purified scFv against biotinylated cynomolgus IL4

T2 sequence (chain, as listed by the source): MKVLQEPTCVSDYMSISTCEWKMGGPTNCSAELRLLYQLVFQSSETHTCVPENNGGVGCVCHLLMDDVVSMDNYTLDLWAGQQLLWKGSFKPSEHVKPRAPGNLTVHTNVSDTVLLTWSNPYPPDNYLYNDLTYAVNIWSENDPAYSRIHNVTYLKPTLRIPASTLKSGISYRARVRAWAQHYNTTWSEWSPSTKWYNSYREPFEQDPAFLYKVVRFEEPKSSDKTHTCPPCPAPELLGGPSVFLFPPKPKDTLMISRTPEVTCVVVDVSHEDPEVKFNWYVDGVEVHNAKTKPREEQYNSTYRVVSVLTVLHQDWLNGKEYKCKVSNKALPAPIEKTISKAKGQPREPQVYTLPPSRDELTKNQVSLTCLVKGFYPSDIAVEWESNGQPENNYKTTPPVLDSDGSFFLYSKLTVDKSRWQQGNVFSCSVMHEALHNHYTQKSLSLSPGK

Going from B1 to B2, the Ki falls from 48 nM to 6.8 nM (7.1-fold). The second binds more tightly here.

B3 and B4 are within 1.5-fold of each other in Ki: 3.8 nM for the first, 3.5 nM for the second.

Compared with B5, B6 is 1.6-fold higher in Ki: 16.5 nM for the first, 26.1 nM for the second. The first binds more tightly here.

First: B7
Second: B8
The Ki of the first is 1.6-fold lower: 27.7 nM for the first, 43.5 nM for the second. The first binds more tightly here.

Going from B9 to B10, the Ki falls from 2.4 nM to 1.3 nM (1.8-fold).

Compared with B11, B12 is 4.4-fold higher in Ki: 1.2 nM for the first, 5.3 nM for the second. The first binds more tightly here.

First: B13
Second: B14
The Ki of the first is 2.6-fold lower: 1.6 nM for the first, 4.2 nM for the second. The first binds more tightly here.

Compared with B15, B16 is 2.2-fold higher in Ki: 4.3 nM for the first, 9.4 nM for the second. The first binds more tightly here.

First: B17
Second: B18
The Ki of the first is 1.5-fold lower: 12.9 nM for the first, 19.6 nM for the second.

Compared with B19, B20 is 3.1-fold higher in Ki: 7.2 nM for the first, 22.2 nM for the second.

Target: T1, human IL4Rα/Fc (R and D Systems 604-4R)
Test: HTRF receptor-ligand assay, purified scFv against biotinylated human IL4

Going from B1 to B2, the Ki rises from 0.5 nM to 0.8 nM (1.6-fold).

Going from B3 to B4, the Ki falls from 0.6 nM to 0.3 nM (2-fold). The second binds more tightly here.

Compared with B5, B6 is 1.6-fold lower in Ki: 1.1 nM for the first, 0.7 nM for the second.

First: B7
Second: B8
The Ki of the first is 1.5-fold lower: 0.6 nM for the first, 0.9 nM for the second. The first binds more tightly here.

B9 and B10 are within 1.5-fold of each other in Ki: 0.061 nM for the first, 0.075 nM for the second.

Going from B11 to B12, the Ki rises from 0.056 nM to 0.1 nM (1.8-fold).

First: B13
Second: B14
The Ki of the first is 26-fold lower: 0.027 nM for the first, 0.7 nM for the second.

B15 and B16 are within 1.5-fold of each other in Ki: 0.6 nM for the first, 0.4 nM for the second.

First: B17
Second: B18
The Ki of the first is 5-fold lower: 0.1 nM for the first, 0.5 nM for the second. The first binds more tightly here.

B19 and B20 are the same in Ki: 0.3 nM for the first, 0.3 nM for the second.
